Results taken from patent US20250101100A1 (Bristol-Myers Squibb, published 2025).
Each block holds one binder with its values, some of them ahead of it.

Columns and labels:
[1] = target: T1, human NKG2A-CD94 heterodimer (extracellular domains) (human, UniProt Q13241 32-179); experiment: SPR Biacore T200, 37 °C, antibody captured by anti-human Fc on C1 chip, hNKG2A-hCD94 as analyte
T1 construct: extracellular domain; also called hNKG2A-heterodimer; hNKG2A-hCD94

[2] = target: T2, human NKG2C on CHO cells (human, UniProt P26717 1-231); experiment: FACS on CHO cells engineered to express human NKG2C-CD94
T2 construct: also called CHO-human NKG2C; hNKG2C
T2 sequence (P26717 other isoform, or with tags, fused parts or gaps): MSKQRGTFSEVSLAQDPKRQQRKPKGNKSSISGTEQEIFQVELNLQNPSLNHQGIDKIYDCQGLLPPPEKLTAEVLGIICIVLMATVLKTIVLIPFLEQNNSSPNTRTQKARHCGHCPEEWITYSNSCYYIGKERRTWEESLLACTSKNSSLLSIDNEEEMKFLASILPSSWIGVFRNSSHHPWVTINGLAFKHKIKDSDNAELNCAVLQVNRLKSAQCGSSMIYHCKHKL

[3] = target: T3, human NKG2A on cells (human, UniProt P26715 1-233); experiment: flow cytometry, blocking of HLA-E pentamer binding to CHO cells expressing human NKG2A
T3 construct: also called hNKG2A; CHO-hNKG2A
T3 sequence (P26715 whole entry): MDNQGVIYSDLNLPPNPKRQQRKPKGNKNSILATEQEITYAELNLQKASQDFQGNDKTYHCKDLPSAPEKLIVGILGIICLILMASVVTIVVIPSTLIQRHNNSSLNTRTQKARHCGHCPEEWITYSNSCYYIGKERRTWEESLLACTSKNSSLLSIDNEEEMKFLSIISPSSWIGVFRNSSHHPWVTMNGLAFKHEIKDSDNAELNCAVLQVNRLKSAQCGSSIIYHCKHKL

[4] = target: T3, human NKG2A on cells; experiment: flow cytometry on NKL cells (endogenous human NKG2A), anti-human IgG-PE
Method: Cells were washed and stained with fluorescently labeled goat anti-human IgG-PE secondary antibody for 30 minutes at 4° C. to detect the bound antibody on the cell surface. Cells were read fresh on the BD LSRFortessa.

[5] = target: T3, human NKG2A on cells; experiment: flow cytometry on CHO cells expressing human NKG2A, anti-human IgG-PE
[6] = target: T3, human NKG2A on cells; experiment: flow cytometry, blocking of labelled HLA-E pentamer on NKL cells
[7] = target: T2, human NKG2C on CHO cells; experiment: flow cytometry, blocking of HLA-E pentamer binding to CHO cells expressing human NKG2C
[8] = target: T2, human NKG2C on CHO cells; experiment: flow cytometry, binding to CHO cells expressing human NKG2C, anti-human IgG-PE
Method: As depicted in FIG. 18A, 1×10⁶ human NKG2A-expressing or human NKG2C-expressing CHO cells were incubated with titrating amounts of anti-NKG2A antibody for 30 minutes at 4° C. Cells were washed and stained with fluorescently labeled goat anti-human IgG-PE secondary antibody for 30 minutes at 4° C. to detect the bound antibody on the cell surface. Cells were read fresh on the BD LSRFortessa.

[9] = target: T3, human NKG2A on cells; experiment: flow cytometry, blocking of labelled HLA-E pentamer on CHO cells expressing human NKG2A
Method: As depicted in FIG. 20A, 1×10⁶ human NKG2A-expressing CHO cells were incubated with titrating amounts of anti-NKG2A antibody (10 ug/ml) for 30 minutes at 4° C. […] Cells were read fresh on the BD LSRFortessa.

[10] = target: T4, cynomolgus monkey NKG2A on cells (cynomolgus monkey, UniProt Q68VD2 1-233); experiment: flow cytometry on CHO cells expressing cynomolgus NKG2A
T4 construct: whole, on cells; On transfected CHO cells or on NK cells of cynomolgus PBMC / blood; also called CHO-cyno NKG2A; CHO-cynomolgus NKG2A
T4 sequence (Q68VD2 entry or part of it): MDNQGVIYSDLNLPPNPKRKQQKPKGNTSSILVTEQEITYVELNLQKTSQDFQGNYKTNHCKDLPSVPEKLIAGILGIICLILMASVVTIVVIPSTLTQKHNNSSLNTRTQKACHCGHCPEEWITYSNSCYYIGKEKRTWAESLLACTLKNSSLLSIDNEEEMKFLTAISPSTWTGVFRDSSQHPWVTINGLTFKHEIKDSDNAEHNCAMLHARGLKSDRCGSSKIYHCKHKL
Method: The ability of anti-NKG2A antibodies that bound to cynomolgus NKG2A-expressing CHO cells was assessed. As depicted in FIG. 22A, 1×10⁶ cynomolgus NKG2A-expressing CHO cells were incubated with titrating amounts of anti-NKG2A antibody (10 ug/ml) 10 for 30 minutes at 4° C. […] Cells were read fresh on the BD LSRFortessa.

[11] = target: T3, human NKG2A on cells; experiment: flow cytometry on CHO cells expressing human NKG2A
[12] = target: T1, human NKG2A-CD94 heterodimer …; experiment: SPR Biacore T200, 37 °C, antibody captured by anti-hFc on CM4 chip, heterodimer as analyte
From the text: (§1) All data were double-referenced and fitted to a 1:1 binding model using the Biacore T200 Evaluation Software version 3.1.

[13] = target: T5, human NKG2C-CD94 heterodimer (extracellular domains) (human, UniProt Q13241 32-179); experiment: as above
T5 construct: extracellular domain; also called hNKG2C-heterodimer; hNKG2C-CD94
T5 sequence (chain, as listed by the source, chain 1 of 2): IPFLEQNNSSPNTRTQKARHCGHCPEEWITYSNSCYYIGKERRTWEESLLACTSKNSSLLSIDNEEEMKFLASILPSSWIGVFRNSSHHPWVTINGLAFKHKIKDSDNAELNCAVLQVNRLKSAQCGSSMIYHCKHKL
T5 sequence (Q13241 32-179, chain 2 of 2): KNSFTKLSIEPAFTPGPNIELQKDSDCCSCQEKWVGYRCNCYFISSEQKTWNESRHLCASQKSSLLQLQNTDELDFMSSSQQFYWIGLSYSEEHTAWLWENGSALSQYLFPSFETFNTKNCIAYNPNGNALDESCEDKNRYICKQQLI
From the text: as §1

[14] = target: T6, cynomolgus NKG2A-CD94-mFc (cynomolgus monkey, UniProt Q68VD2 94-233); experiment: SPR Biacore T200, 37 °C, Fab as analyte over NKG2A-CD94-mFc immobilized on CM4 chip
T6 construct: also called monkey NKG2A-CD94-mFc (truncated construct); cyNKG2A-CD94; not shown: mouse Fc
T6 sequence (Q68VD2 entry or part of it): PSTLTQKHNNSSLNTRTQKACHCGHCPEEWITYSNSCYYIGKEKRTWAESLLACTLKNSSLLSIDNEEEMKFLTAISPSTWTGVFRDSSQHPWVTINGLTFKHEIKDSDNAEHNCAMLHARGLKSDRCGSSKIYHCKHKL

T1 sequence (chain, as listed by the source, chain 1 of 2): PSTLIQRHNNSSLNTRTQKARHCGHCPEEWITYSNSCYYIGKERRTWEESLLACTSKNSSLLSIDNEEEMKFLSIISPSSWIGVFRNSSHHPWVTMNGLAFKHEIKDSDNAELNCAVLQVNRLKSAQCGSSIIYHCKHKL
T1 sequence (Q13241 32-179, chain 2 of 2): as the sequence (Q13241 32-179, chain 2 of 2) above

B3: 11H9.A1 antibody (antibody, human IgG1, kappa, V domains shown)
VH: EVQLVESGGGLVKPGGSLRLSCAASGFTFSSYSMNWVRQAPGKGLEWVSSISSSSSYIYYADSVKGRFTISRDNAKNSLYLQMNSLRAEDTAVYYCARLLWFGEIFDYWGQGTLVTVSS
VL: AIQLTQSPSSLSASVGDRVTITCRASQGISSALAWYQQKPGKAPKLLIYDASSLKSGVPSRFSGSGSGTDFTLTISSLQPEDFATYYCQQFNSYPITFGQGTRLEIKR
notes: Hybridoma antibody; also called 11H9.A4
- IC50 [3]: 1 nM
- EC50 [4]: 0.1 nM
- EC50 [5]: 0.7 nM
- IC50 [6]: 0.1 nM
- IC50 [7]: 54 nM
- EC50 [8]: 9 nM

B4: NKG2A.14 antibody (antibody, human IgG1, kappa, V domains shown)
VH: EVQLVESGGGLVKPGGSLRLSCAASGFTFSSHSMNWVRQAPGKGLEWVSAISSSSSYIYYADSVKGRFTISRDNAKNSLYLQMNSLRAEDTAVYYCAREEWGLPFDYWGQGILVTVSS
VL: AIQLTQSPSSLSASVGDRVTITCRASQGIQSALAWYQQKPGKAPKLLIYDASSLKSGVPSRFSGSGSGTDFTLTISSLQPEDFATYYCQQFNSYPLTFGQGTRLEIKR
notes: IgG1.3f; also called 13F3.A4 VK-N30Q
- EC50 [5]: 0.1 nM
- IC50 [9]: 0.2 nM

B5: NKG2A.10 antibody (antibody, IgG1, V domains shown)
VH: EVQLVESGGGLVKPGGSLRLSCAASGFTFSSHSMNWVRQAPGKGLEWVSAISSSSSYIYYADSVKGRFTISRDNAKNSLYLQMNSLRAEDTAVYYCAREEWGLPFDYWGQGTLVTVSS
VL: AIQLTQSPSSLSASVGDRVTITCRASQGIQSALAWYQQKPGKAPKLLIYDASSLKSGVPSRFSGSGSGTDFTLTISSLQPEDFATYYCQQFNSYPLTFGQGTRLEIKR
notes: IgG1.3f; also called 13F3.A4 VH-I107T, VK-N30Q
- EC50 [5]: 0.1 nM
- IC50 [9]: 0.05 nM
- EC50 [10]: 1.3 nM

B6: NKG2A.5 antibody (antibody, V domains shown)
VH: EVQLVESGGGLVKPGGSLRLSCAASGFTFSSYSMNWVRQAPGKGLEWVSSISSSSSYIYYADSVKGRFTISRDNAKNSLYLQMNSLRAEDTAVYYCARLLWFGEIFDYWGQGTLVTVSS
VL: AIQLTQSPSSLSASVGDRVTITCRASQGISSALAWYQQKPGKAPKLLIYDASSLKSGVPSRFSGSGSGTDFTLTISSLQPEDFATYYCQQFNSYPITFGQGTRLEIK
notes: also called recombinant 11H9.A4
- EC50 [5]: 0.3 nM
- IC50 [9]: 0.3 nM

B9: 1G5.B2 antibody (antibody, human IgG1, kappa, V domains shown)
VH: QVQLVESGGGVVQPGRSLRLSCAASGFTFSDYAMHWVRQTPGRGLEWLTFISYDGSNKYHADSVKGRFTISRDNSKNTLFLQMNSLRAEDTAVYYCARDSWDRGYFDLWGRGTLVTVSS
VL: EIVLTQSPATLSLSPGERATLSCRASQSVSSYLAWYQQKPGQAPRLLIYDASNRATGIPARFSGSGSGTDFTLTISSLEPEDFAVYYCQQRSNWWTFGQGTKVEIKR
notes: Hybridoma antibody; printed as IG5.B2 in two paragraphs; also called IG5.B2
- EC50 [4]: 0.3 nM
- EC50 [5]: 0.6 nM
- IC50 [6]: 0.4 nM
- IC50 [9]: 0.7 nM

B10: 2G6.C2 antibody (antibody, human IgG1, kappa, V domains shown)
VH: EVQLVESGGGLVQRGGSLRLSCAASGFTFSSNSMNWIRQAPGKGLEWVAHISSGSSFIYYADSVKGRFTISRDNAKNSLSLQMNSLRDEDTAVYYCARDDWGIDAFNIWGQGTMVTVSS
VL: EIVLTQSPATLSLSPGERATLSCRASQSVSSSLAWYQQKPGQAPRLLIYDASNRATGIPARFSGSGSGTDFTLTISSLEPEDFAVYYCQQRSNWIFTFGPGTKVDIKR
notes: Hybridoma antibody
- EC50 [11]: 1 nM
- Half-life of Antibody/Analyte Complex [12]: 19 s
- Kd [12]: 91 nM
- koff [12]: 0.036 s⁻¹
- kon [12]: 400000 M⁻¹ s⁻¹
- Half-life of Antibody/Analyte Complex [13]: 23 s
- Kd [13]: 1100 nM
- koff [13]: 0.03 s⁻¹
- kon [13]: 28000 M⁻¹ s⁻¹
- IC50 [9]: 1.3 nM
- EC50 [10]: 0.6 nM

B11: NKG2A.9 Fab (Fab, V domains shown)
VH: EVQLVESGGGLVKPGGSLRLSCAASGFTFSSHSMNWVRQAPGKGLEWVSAISSSSSYIYYADSVKGRFTISRDNAKNSLYLQMNSLRAEDTAVYYCAREEWGLPFDYWGQGTLVTVSS
VL: AIQLTQSPSSLSASVGDRVTITCRASQGISSALAWYQQKPGKAPKLLIYDASSLKSGVPSRFSGSGSGTDFTLTISSLQPEDFATYYCQQFNSYPLTFGQGTRLEIK
notes: Fab of NKG2A.9
- KD ratio (cy/h) [14]: ~26
- Kd [14]: 1600 nM

Now from value to binder:

- Half-life of Antibody/Analyte Complex [1]: 3 to 4 s
- Kd [1]: 26 nM
- koff [1]: 0.2 s⁻¹
- kon [1]: 7e+06 M⁻¹ s⁻¹
B1: monalizumab (antibody, V domains shown)
VH: QVQLVQSGAEVKKPGASVKVSCKASGYTFTSYWMNWVRQAPGQGLEWMGRIDPYDSETHYAQKLQGRVTMTTDTSTSTAYMELRSLRSDDTAVYYCARGGYDFDVGTLYWFFDVWGQGTTVTVSS
VL: DIQMTQSPSSLSASVGDRVTITCRASENIYSYLAWYQQKPGKAPKLLIYNAKTLAEGVPSRFSGSGSGTDFTLTISSLQPEDFATYYCQHHYGTPRTFGGGTKVEIKR

- binding result [2]: no binding
B2: P1-069366 antibody (antibody, V domains shown)
VH: QVQLVESGGGVVQPGRSLRLSCAASGFTFSSYAMHWVRQAPGKGLEWVAVISYDGSYKEYADSVKGRFTISRDSSKNTLYLQMNSLRAEDTAVYYCARAQISEYFDYWGQGTLVTVSS
VL: DIQMTQSPSSLSASVGDRVTITCRASQGISSWLAWYQQKPEKAPKSLIYAASSLQSGVPSRFSGSGSGTDFTLTISSLQPEDFATYYCQQYNSYPLTFGQGTKVEIKR
notes: From the immune antibody library (yeast display); also called P10069366

- EC50 [5]: 0.1 nM
- IC50 [9]: 0.1 nM
B7: NKG2A.15 antibody (antibody, human IgG1, kappa)
heavy: EVQLVESGGGLVKPGGSLRLSCAASGFTFSSHSMNWVRQAPGKGLEWVSAISSSSSYIYYADSVKGRFTISRDNAKNSLYLQMNSLRAEDTAVYYCAREEWGLPFDYWGQGILVTVSSASTKGPSVFPLAPSSKSTSGGTAALGCLVKDYFPEPVTVSWNSGALTSGVHTFPAVLQSSGLYSLSSVVTVPSSSLGTQTYICNVNHKPSNTKVDKRVEPKSCDKTHTCPPCPAPEAEGAPSVFLFPPKPKDTLMISRTPEVTCVVVDVSHEDPEVKFNWYVDGVEVHNAKTKPREEQYNSTYRVVSVLTVLHQDWLNGKEYKCKVSNKALPAPIEKTISKAKGQPREPQVYTLPPSREEMTKNQVSLTCLVKGFYPSDIAVEWESNGQPENNYKTTPPVLDSDGSFFLYSKLTVDKSRWQQGNVFSCSVMHEALHNHYTQKSLSLSPGK
light: AIQLTQSPSSLSASVGDRVTITCRASQGIPSALAWYQQKPGKAPKLLIYDASSLKSGVPSRFSGSGSGTDFTLTISSLQPEDFATYYCQQFNSYPLTFGQGTRLEIKRTVAAPSVFIFPPSDEQLKSGTASVVCLLNNFYPREAKVQWKVDNALQSGNSQESVTEQDSKDSTYSLSSTLTLSKADYEKHKVYACEVTHQGLSSPVTKSFNRGEC
notes: IgG1.3f; also called 13F3.A4 VK-N30P

- EC50 [5]: 0.2 nM
- IC50 [9]: 0.1 nM
- EC50 [10]: 1.2 nM
B8: NKG2A.12 antibody (antibody, human IgG1, kappa, V domains shown)
VH: EVQLVESGGGLVKPGGSLRLSCAASGFTFSSHSMNWVRQAPGKGLEWVSAISSSSSYIYYADSVKGRFTISRDNAKNSLYLQMNSLRAEDTAVYYCAREEWGLPFDYWGQGTLVTVSS
VL: AIQLTQSPSSLSASVGDRVTITCRASQGINSALAWYQQKPGKAPKLLIYDASSLKSGVPSRFSGSGSGTDFTLTISSLQPEDFATYYCQQFNSYPLTFGQGTRLEIKR
notes: IgG1.3f; also called 13F3.A4 VH-I107T

- EC50 [10]: 1.4 nM
B12: NKG2A.11 antibody (antibody, human IgG1, kappa)
heavy: EVQLVESGGGLVKPGGSLRLSCAASGFTFSSHSMNWVRQAPGKGLEWVSAISSSSSYIYYADSVKGRFTISRDNAKNSLYLQMNSLRAEDTAVYYCAREEWGLPFDYWGQGTLVTVSSASTKGPSVFPLAPSSKSTSGGTAALGCLVKDYFPEPVTVSWNSGALTSGVHTFPAVLQSSGLYSLSSVVTVPSSSLGTQTYICNVNHKPSNTKVDKRVEPKSCDKTHTCPPCPAPEAEGAPSVFLFPPKPKDTLMISRTPEVTCVVVDVSHEDPEVKFNWYVDGVEVHNAKTKPREEQYNSTYRVVSVLTVLHQDWLNGKEYKCKVSNKALPAPIEKTISKAKGQPREPQVYTLPPSREEMTKNQVSLTCLVKGFYPSDIAVEWESNGQPENNYKTTPPVLDSDGSFFLYSKLTVDKSRWQQGNVFSCSVMHEALHNHYTQKSLSLSPG
light: AIQLTQSPSSLSASVGDRVTITCRASQGIPSALAWYQQKPGKAPKLLIYDASSLKSGVPSRFSGSGSGTDFTLTISSLQPEDFATYYCQQFNSYPLTFGQGTRLEIKRTVAAPSVFIFPPSDEQLKSGTASVVCLLNNFYPREAKVQWKVDNALQSGNSQESVTEQDSKDSTYSLSSTLTLSKADYEKHKVYACEVTHQGLSSPVTKSFNRGEC
notes: Human IgG1.3f, kappa; also called 13F3.A4 VH I107T, VK N30P; 13F3 VH I107T VK N30P
